From patent US20230303695A1 (SHANGHAI XBH BIOTECHNOLOGY, published 2023)

T1: human IGSF8 expressed on the cell surface (human, UniProt Q969P0 28-613)
T1 construct: whole, on cells; also called human IGSF8 on CT26 cells; IGSF8 on MC38 cells
T1 sequence (looked up): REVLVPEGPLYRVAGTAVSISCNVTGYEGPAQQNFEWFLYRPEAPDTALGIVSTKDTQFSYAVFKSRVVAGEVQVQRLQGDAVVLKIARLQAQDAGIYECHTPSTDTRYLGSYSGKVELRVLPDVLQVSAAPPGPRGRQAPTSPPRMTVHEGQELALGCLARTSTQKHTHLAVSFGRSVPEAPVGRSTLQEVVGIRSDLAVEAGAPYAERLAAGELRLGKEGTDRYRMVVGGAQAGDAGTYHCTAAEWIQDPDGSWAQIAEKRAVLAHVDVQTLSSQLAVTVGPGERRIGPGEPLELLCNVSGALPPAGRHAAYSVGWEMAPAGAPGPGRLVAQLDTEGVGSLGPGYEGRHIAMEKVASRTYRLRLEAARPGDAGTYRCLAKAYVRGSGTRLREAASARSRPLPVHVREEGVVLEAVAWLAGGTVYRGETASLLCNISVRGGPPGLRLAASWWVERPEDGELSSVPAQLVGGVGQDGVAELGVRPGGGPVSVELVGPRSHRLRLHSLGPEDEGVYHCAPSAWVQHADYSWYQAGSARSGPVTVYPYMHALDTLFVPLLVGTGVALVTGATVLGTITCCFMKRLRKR

T2: IGSF8 protein without D1 domain (human, UniProt Q969P0 150-579, limits assumed)
T2 construct: domain: D2-4; also called D24; D2-4
T2 sequence (looked up): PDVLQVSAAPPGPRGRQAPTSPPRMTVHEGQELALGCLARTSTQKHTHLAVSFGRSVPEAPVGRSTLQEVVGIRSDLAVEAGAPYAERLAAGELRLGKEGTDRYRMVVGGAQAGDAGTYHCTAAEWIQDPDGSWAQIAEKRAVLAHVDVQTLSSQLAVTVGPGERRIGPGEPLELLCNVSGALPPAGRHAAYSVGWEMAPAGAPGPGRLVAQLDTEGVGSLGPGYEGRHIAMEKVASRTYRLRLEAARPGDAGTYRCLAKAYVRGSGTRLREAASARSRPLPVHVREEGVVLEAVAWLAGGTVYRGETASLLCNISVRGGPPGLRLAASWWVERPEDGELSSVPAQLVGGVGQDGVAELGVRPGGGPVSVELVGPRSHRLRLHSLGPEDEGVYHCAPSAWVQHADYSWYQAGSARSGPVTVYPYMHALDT

T3: full-length IGSF8 (recombinant antigen of the SPR screen; IGSF8 target antigen of the phage panning) (human, UniProt Q969P0 28-579, limits assumed)
T3 sequence (looked up): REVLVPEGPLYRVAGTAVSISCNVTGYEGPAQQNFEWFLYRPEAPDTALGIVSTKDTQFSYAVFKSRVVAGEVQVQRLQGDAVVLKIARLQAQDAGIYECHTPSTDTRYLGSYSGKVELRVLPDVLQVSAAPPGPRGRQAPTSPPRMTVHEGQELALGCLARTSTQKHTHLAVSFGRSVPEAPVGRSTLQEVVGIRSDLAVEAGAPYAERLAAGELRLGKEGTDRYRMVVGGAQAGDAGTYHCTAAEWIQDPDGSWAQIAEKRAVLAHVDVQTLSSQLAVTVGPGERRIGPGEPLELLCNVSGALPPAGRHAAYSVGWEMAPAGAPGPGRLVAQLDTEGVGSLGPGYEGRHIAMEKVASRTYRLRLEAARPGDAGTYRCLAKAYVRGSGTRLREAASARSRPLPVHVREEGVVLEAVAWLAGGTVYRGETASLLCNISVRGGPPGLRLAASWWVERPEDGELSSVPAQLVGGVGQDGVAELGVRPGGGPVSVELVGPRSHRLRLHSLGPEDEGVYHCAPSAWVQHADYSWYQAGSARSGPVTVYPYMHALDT

T4: D1 domain of IGSF8 (recombinant protein) (human, UniProt Q969P0 28-149, limits assumed)
T4 construct: domain: D1 (Ig V-set domain); also called Ig V-set domain of IGSF8
T4 sequence (looked up): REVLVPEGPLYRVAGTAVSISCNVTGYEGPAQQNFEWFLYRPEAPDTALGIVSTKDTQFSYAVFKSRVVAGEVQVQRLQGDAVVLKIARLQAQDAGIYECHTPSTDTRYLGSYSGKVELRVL

T5: mouse IGSF8 expressed on CT26 cells (mouse, UniProt Q8R366 26-611)
T5 construct: whole, on cells
T5 sequence (looked up): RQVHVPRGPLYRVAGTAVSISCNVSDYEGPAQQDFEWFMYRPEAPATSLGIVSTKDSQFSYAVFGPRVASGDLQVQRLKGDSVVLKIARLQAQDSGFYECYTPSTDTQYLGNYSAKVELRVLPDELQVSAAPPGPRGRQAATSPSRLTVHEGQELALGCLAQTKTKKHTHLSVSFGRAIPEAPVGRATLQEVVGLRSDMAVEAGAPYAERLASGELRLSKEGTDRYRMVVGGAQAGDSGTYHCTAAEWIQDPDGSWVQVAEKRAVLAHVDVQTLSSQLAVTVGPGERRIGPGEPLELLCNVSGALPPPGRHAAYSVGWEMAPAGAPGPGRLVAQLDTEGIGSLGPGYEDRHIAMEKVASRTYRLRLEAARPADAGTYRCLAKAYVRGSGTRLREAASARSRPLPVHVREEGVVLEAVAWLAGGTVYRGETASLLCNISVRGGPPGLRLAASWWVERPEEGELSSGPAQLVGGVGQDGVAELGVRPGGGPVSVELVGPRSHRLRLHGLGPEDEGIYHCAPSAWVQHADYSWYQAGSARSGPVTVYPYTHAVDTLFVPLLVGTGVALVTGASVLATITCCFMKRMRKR

T6: recombinant human IGSF8 extracellular domain tagged by a human Fc region (IGSF8-hFc) (human, UniProt Q969P0 28-579, biotin label in Examples 17, 18 and 28 (site not given))
T6 construct: also called IGSF8-Fc fusion protein; IGSF8-hFc-biotin; not shown: human Fc region
T6 sequence: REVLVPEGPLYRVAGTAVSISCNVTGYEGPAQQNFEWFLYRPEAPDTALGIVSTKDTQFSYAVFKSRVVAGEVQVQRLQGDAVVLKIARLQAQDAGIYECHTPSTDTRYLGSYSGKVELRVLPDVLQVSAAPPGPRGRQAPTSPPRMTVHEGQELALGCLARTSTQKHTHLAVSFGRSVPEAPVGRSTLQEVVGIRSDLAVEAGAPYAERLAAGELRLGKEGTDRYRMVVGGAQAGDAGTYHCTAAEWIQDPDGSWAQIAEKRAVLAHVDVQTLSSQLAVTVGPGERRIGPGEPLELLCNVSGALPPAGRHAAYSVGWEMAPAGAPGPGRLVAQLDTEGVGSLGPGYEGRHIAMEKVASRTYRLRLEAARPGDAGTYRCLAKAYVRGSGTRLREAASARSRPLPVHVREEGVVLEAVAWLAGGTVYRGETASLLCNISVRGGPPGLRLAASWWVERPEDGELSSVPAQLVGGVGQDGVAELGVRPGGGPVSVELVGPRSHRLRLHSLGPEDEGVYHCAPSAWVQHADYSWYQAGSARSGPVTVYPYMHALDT


Key:
[1] = biological target: T1, human IGSF8 expressed on the cell …; test: FACS on CT26 cells with forced surface expression of human IGSF8
Method: For antibody binding assays based on cell-expressed antigens, 100,000 cells overexpressing the antigen (either the full-length IGSF8 or the D1 domain thereof) were washed with PBS buffer containing 2% FBS, and then incubated with 100 μL of antibodies or IgG of different concentrations for 30 minutes on ice. Cells were then washed twice with wash buffer, and incubated with 100 μL of 1:100 anti-human Fc-PE antibody for 15 minutes on ice. Cells were washed twice with wash buffer and analyzed on a FACS analyzer (CytoFlex, Beckman).

[2] = biological target: T2, IGSF8 protein without D1 domain; test: FACS, single antibody dose, IGSF8-D24 (D2-D4 with TM, no D1) expressed on CT26 cells
[3] = biological target: T3, full-length IGSF8 (recombinant antigen …); test: SPR, Biacore T100
[4] = biological target: T4, D1 domain of IGSF8 (recombinant protein); test: SPR, Biacore T100
[5] = biological target: T5, mouse IGSF8 expressed on CT26 cells; test: FACS on CT26 cells
[6] = biological target: T6, recombinant human IGSF8 extracellular …; test: FACS, biotin-labelled IGSF8 on CT26 cells expressing KIR3DL1/2 constructs, MFI normalized to Thy1.1
[7] = biological target: T2, IGSF8 protein without D1 domain; test: FACS, hFc-tagged proteins on CT26 cells expressing the receptor, MFI normalized to Thy1.1
Method: KLRC1 also contains a ITIM motif in its intracellular domain, and was known to be a inhibitory receptor of NK or CD8⁺ T cells as part of a heterodimer with KLRD1 on the cell surface. […] Specifically, 100,000 CT26 cells overexpressing the antigens (KIRs or KLRs) were washed with PBS buffer containing 2% FBS, and incubated with 100 μL IGSF8 recombinant proteins or antibodies (5 μg/mL) for 30 minutes on ice. Cells were then washed twice with wash buffer, and incubated with 100 μL of 1:100 anti-human Fc-PE antibody for 15 minutes on ice. Cells were washed twice with wash buffer and analyzed on a FACS analyzer (CytoFlex, Beckman). In these experiments, the mean fluorescence intensity (MFI) of IGSF8 binding to different CT26 cells were normalized by the expression of different KLRs on CT26 cells using an anti-thy1.1 mAb via flow cytometry.

| Binder | EC50 [1] [nM] | binding result [2] | Kd [3] [nM] | Kd [4] [nM] | binding result [5] | binding result [6] | binding result [7] |
| --- | --- | --- | --- | --- | --- | --- | --- |
| Antibody C33 (1C2) (antibody, V domains shown, also called mAb-1C2 (C33)) VH: QVQLVESGGGVVQPGRSLRLSCAASGFTFSTYGMHWVRQAPGKGLEWVAVIWDDGSYKYYGDSVKGRFTISRDNSKNTLYLQMNSLRAEDTAVYYCARDGSGWGYAFDIWGQGTMVTVSS VL: DIQLTQSPSSLSASVGDRVTITCQASQDISEYLNWYQHKPGKAPNPLVFDAANLETGVPPRFSATGSGTDFSLTITSLQPEDFATYYCQQYDSFPYTFGQGTRLDIK | 6.2 | no binding (tested: not shown on the sheet) | 33.2 | < 50 |  |  |  |
| Antibody C32 (B104) (antibody, IgG1, V domains shown, also called mAb-B104 (C32)) VH: QVQLVQSGAEVKRPGASVKVSCKASGYTFTNDIIHWVRQAPGQRLEWMGWINAGYGNTQYSQNFQDRVSITRDTSASTAYMELISLRSEDTAVYYCARGYYRSPTWFDWWGQGTLVTVSS VL: ETTLTQSPSSLSASVGDRVTITCRASQSISSWLAWYQQKPGKAPKLLIYKASSLESGVPSRFSGSGSGTEFTLTISSLQPDDFATYYCQQYGDYPYTFGQGTKLEIKR | 5.42 | no binding (tested: not shown on the sheet) | 25.9 | < 50 | binds |  |  |
| KIR3DL2 D1 construct on CT26 cells (receptor, human, UniProt P43630 22-118, looked up, domain: D1; also called D1/D3 construct) LMGGQDKPFLSARPSTVVPRGGHVALQCHYRRGFNNFMLYKEDRSHVPIFHGRIFQESFIMGPVTPAHAGTYRCRGSRPHSLTGWSAPSNPLVIMVT |  |  |  |  |  | no binding (tested: not shown on the sheet) |  |
| KIR3DL1 D3 construct on CT26 cells (receptor, human, UniProt P43629 222-340, looked up, domain: D3; also called D1/D3 construct) EKPSLSAQPGPKVQAGESVTLSCSSRSSYDMYHLSREGGAHERRLPAVRKVNRTFQADFPLGPATHGGTYRCFGSFRHSPYEWSDPSDPLLVSVTGNPSSSWPSPTEPSSKSGNPRHLH |  |  |  |  |  | no binding (tested: not shown on the sheet) |  |
| Antibody C36 (1B4) (antibody, V domains shown, also called mAb-1B4 (C36)) VH: EVQLLESGGGLVQPGGSLRLSCAASGFTFSSYAMSWVRQAPGKGLEWVSGITGSGGSTYYADSVKGRFTISRDNSKNTLYLQMNSLRAEDTAIYYCARGGALDIWGQGTMVTVSS VL: DIQMTQSPSSLSASVGDRVTITCRASQVIHNYLAWYKQKPGQAPKLLIYSASSLQSGVPSRFSGSGSGTDFTLTISSLQPEDFATYYCQQSYSTPLTFGGGTKVEIKR | 2.02 |  | 4.57 | < 50 | binds |  |  |
| Antibody C31 (B46) (antibody, V domains shown, also called mAb-B46 (C31)) VH: QVQLVESGGGVVQPGRSLRLSCAASGFTFSTYGMHWVRQAPGKGLEWVAVIWDDGSYKYYGDSVKGRFTISRDNSKNTLYLQMNSLRAEDTAVYYCAGGYSYSYMAIWGKGTTVTVSS VL: DIVLTQSPSSLSASVGDRVTITCRASQGISTFLNWYQQKPGKAPKLLIYAASSLQSGVPSRFSGSGSGTDFTLTIGSLQPEDFASYFCQQTYSTQWTFGQGTKVEIK | 2.08 | no binding (tested: not shown on the sheet) | 7.29 | < 50 | binds |  |  |
| KLRC1/KLRD1 heterodimer expressed on CT26 cells (receptor, whole, on cells; cells co-transfected with both lentiviral constructs; also called KLRC1&D1 heterodimer; KLRC1/D1) chain 1: not shown chain 2: MAVFKTTLWRLISGTLGIICLSLMSTLGILLKNSFTKLSIEPAFTPGPNIELQKDSDCCSCQEKWVGYRCNCYFISSEQKTWNESRHLCASQKSSLLQLQNTDELDFMSSSQQFYWIGLSYSEEHTAWLWENGSALSQYLFPSFETFNTKNCIAYNPNGNALDESCEDKNRYICKQQLI |  |  |  |  |  |  | no binding |
| Antibody C38 (2B4) (antibody, V domains shown, also called mAb-2B4 (C38)) VH: EVQLVESGGGLEQPGGSLRLSCAGSGFTFRDYAMTWVRQAPGKGLEWVSSISGSGGNTYYADSVKGRFTISRDNSKNTLYLQMNSLRAEDTAIYYCARGEYSSGWPSWFDPWGQGTLVTVSS VL: EIVLTQSPSSLSASVGDRVTISCRASRTVGTFLNWYQQRPGKPPQALILGVSILEGGVSSRFSGAGSGTEFSLTISSLQPEDIGTYYCQQSHDVPRTFGQGTKVDLRR | 4.64 | no binding (tested: not shown on the sheet) | 3.83 | < 50 |  |  |  |
| KIR3DL2 D3 construct on CT26 cells (receptor, human, UniProt P43630 222-340, looked up, domain: D3; also called D1/D3 construct) EKPSLSAQPGPTVQAGENVTLSCSSWSSYDIYHLSREGEAHERRLRAVPKVNRTFQADFPLGPATHGGTYRCFGSFRALPCVWSNSSDPLLVSVTGNPSSSWPSPTEPSSKSGICRHLH |  |  |  |  |  | no binding (tested: not shown on the sheet) |  |
